# Legend:
# [1] = biological target: CS40 anti-ManLAM monoclonal antibody; experiment: competitive ELISA, ManLAM-coated plate, CS40 (1:2000) mixed with peptide
# [2] = biological target: CS40 anti-ManLAM monoclonal antibody; experiment: competitive ELISA, ManLAM-coated plate, CS40 (1:2000) mixed with peptide; at 50 µg/ml peptide
binder,measurement,setting,value
ISLTEWSMWYRH [B11 synthetic peptide],peptide concentration giving 100% decrease in OD,[1],50 µg/mL
same,decrease in OD (inhibition of CS40 binding to ManLAM),[2],100%

# — patent US20080318868A1
